From the nanobody polyreactivity screen of Harvey et al. (2022)

assay: yeast display, Sf9 membrane polyspecificity reagent, FACS + sequencing; frameworks hold sequencing errors
How it was run: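 A nanobody's polyreactivity label depends on the gate it was sorted from. Yeast display cells were stained with 10% biotinylated, detergent-solubilized Sf9 membrane reagent for 1 hour at 4 °C, enriched on streptavidin microbeads and sorted by FACS. The low and high (top ~1%) gates were set on anti-HA fluorescence for expression and streptavidin fluorescence for reagent binding.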

Sequence | polyreactivity (PSR sort gate)
QVQLVESGGGLVQAGGSLRLSCAASGSIFNHYAMGWYRQAPGKERELVAVIPSGGSTNYADSVKGRFTISRDNAKNTVYLQMNSLKPEDTAVYYCAADTYLSAVDYYGWAHDYWGQGTQVTVSS | low polyreactivity
QVQIGESGGGLVQAGGSLRLSCAASGSTFWRYAMGWDRPATGKECELVASITGGGGSTYYADSVKGRFTISRDNAKNTVDLQMHRLKPEDNAVYSCNARRYYRVDSYDYWGQGTQVTVSS | high polyreactivity
QVQLVESGGGLVQAGGSLRLSCSASGRIFRINAMGWYRQAPGKDRELVASISRRGGNTYYADSVKGRFTISRDNAKNTVYLQMNSLKPEDTAVYYCAADVHTPALYTYAAGDYWGQGTQVTVSS | low polyreactivity
QVQLQESGGGLVHAGGSLRLSCPASGTISFINMMGWYRQAPGRERELVASINFGANTNYADSVKGRFTISRDNAKNTVYLQLKSLKPEDTAVYYCAVYCAWTIGFTYWGQGTQVTVRS | high polyreactivity
QVHLVESRGGLVQAGGSLRLSCAASGRPFNPYAMGWYRQAPGKEREFVYADSVKGRFTISRDNAKNTVYLQMNSLKPEDTAVYYCAADVYPDTLHPYNYDYWGQGTQVTVSS | low polyreactivity
QGQHVESGGGLVQAGGSLRLICAASGRIIVHYVMGWYRQAPRKERELVAAISRSGGRTYYADSVKGRFTISRDNAKNTVYLQMNSLKPEDTAVYYCATDASTDKYDYWGQGTQVTVSS | high polyreactivity
QVHLVESGGGLFQAGGSLRLSCAPSGSITGYYAMGWYRQAPGKERDLVASIRNTGARTYYADSVKGRFTISRDNAKKTVYIQKNSLKAEDTAVYYCAADVKRDRVRGGDDWGQGTQVTVSS | low polyreactivity
QVQLVESGGGLVQAGGSLRLSCAASGIIYGRYAMGWYRQAPGKERELVAAINASGGSTYYADSVKGRFTISRDNAKNTVYLQMNSLKPEDSAVYYCATRSTRSRTSGYYYWGQGTQVTVSS | high polyreactivity
QVQLVESGGGLVQAGGSLRLICAAWSIFYLNAMGWYRQAPGKERELVAAISSAGSTYYADSVKGRFTISRDNAKNSVYLQMNSLKPEDTAVYYCAAYWYDSPGVTEIWYDYWGQGTQVTVSS | low polyreactivity
QVQLVESGGGLVQAGGSLRLSCAASGIIFFYNAMGWYRQAPGKERELVAAIRRGGRTNYADSVKGRFTISRDNAKNTVYLQMNSLKPEDTAVYYCNKDFYPGDYWGQGTQVTVSS | low polyreactivity
QVQLVESGGGLVQAGGSLRLSCAASGRIFGRYAMGWYIQAPGKERELVAAISRSGGITYYADSVKGRFTISRDNAKNTVYLQMNSLKPEDTAVYYCAAYRAGNSYYPRLNYWGQGTQVTVSS | high polyreactivity
QVQLVESVGGLVQAGGSLRLSSAASGSIFAYNAMGSYRQAPGKERELVAAITSDDSTNNADSVKGRFTISRDNAKNTVYLQMNSLKPEDTAVYYCAAYYYYTYIIGYDYWGQGTQVTVSS | low polyreactivity
QVQLVESAGGLVQAGGSLRLSCAPSGRIFYYNAMGWYRQAPGKERELVAAITSGGSTNYADSVKGRFTISRDNAKNTVYLQMNSLKPEDTAVYYCAADYYFYVAGVHYDYWGQGTQVTVSS | low polyreactivity
QVQLVESGGGLVQAGGSLRLSCAASGRTFENNAMGWYRQAPGKERELVATIRYSGTSTYADSVKGRFTISRDNAKNTVYLQMNSLKPEDTAVYYCAKQVRYYGYKYNYWGQGTQVTVSS | high polyreactivity
QVQLVESGGGLVQAGGSLRLSCAASGFIFVRNTMGWYRQAPGKERELVASISRRGRTTYYADSVKGRFTISRDNAKNTVSLQMNSLKPEDTAVYYCNARYRVPKQGDYWGQGTQVTVSS | high polyreactivity
QVQLVESGGGLVQAGGSLRLSCAASGRIFGYYAMGWYRQAPGKERELVAAISYSGGSTYYADSVKGRFTISRDNAKYTVFLQMNSLKPEDTAVYYCNKVYSIRGYWGQGTQVTVSS | high polyreactivity
QVQLVESGGGLVQAGGSLRLSCAASGYTFPDYAMGWYRQATGKERELVAAIRSGGGTNYADSVKGRFTISRDNAKNTVYLQMNSLKPEDTAVYYCAKEWAGGLYDYWGQGTQVTVSS | low polyreactivity
QVQLVESGGGLVQAGGSLRLSCAASGFIFSYNAMGWYRQAPGKERELVAAISSSGGTTYYADSVKGRFTISRDKAKNTVYLQMNSLKPEDTAVYYCNKTTHSRTFRYDYWAQGTQVTVSS | low polyreactivity
QVQLVESGGGLVQAGGSLRLSCAASGSTFKLYAMGWYRPAPGKERELVAAITRSGTRTYYADSVKGRFTISRDNAKNTVYLQMNSLKPEDTAVYYCAADGYRISGYDYWGQGTQVTVSS | high polyreactivity
QVQLVESAGGLVQAGGSLRLSCAASGSTFQDYVMGWYRQAPGKERELVAAISRSGGSTYYADSVKGRFTISRDNAKNTVYLQMNSLKPEDTAVYYCAAQQYTYFVPFLTYGEYDYWGQGTQVTVSS | low polyreactivity
QVQLVESGGGLVQAGGSLRLSCAASGRTFYVYAMGWYRQAPGKERELVAAISQDDGGTYYADSVKGRFTISRDNAKNTVYLQMNSLKPEDTAVYYCAAKEWRYGYDYGYWGQGTQVTVSS | low polyreactivity

Sequence | polyreactivity (PSR sort gate)
QVQLVESGGGLVQAGGSLRLSCAASGSIDRFYAMGWYRQAPRKERDLVAFITSTGRTYYADSVKGRFTISRDNAKNTVYLQMNSLKPEDTAVYYCAAGYPKRVAYLWFSQYDYWGKGTQVTVSS | low polyreactivity
QVQLVESGGGLVQAGGSLRLSCAASGRTFRSYTMGWYRQAPGKERELVAAIRTSSGSTYYADSVKGRFTISRDNAKNTVYLQMNSLKPEDTAVYYCAKTLLYPWFRTVAVDYWGQGTQVTVSS | low polyreactivity
QVQLVESGGGLVQAGGSLRLSCAASGSIFVQNAMGWYRQAPGTERELVAVINSGDSTNYADSVKGRFTISRDNAKNTVDLQMNSLKPEDTAVYYCAVDDVSYYYLRAYNYELSWYCSGLDYWGQGTQVTVSS | low polyreactivity
QVQLVESGGGLVQAGGSLRLSCAASGITFVGNDMGWYRQAPGKERELVATISSSGTRTYYADSVKGRFTISRDNAKNTVYLLMNSLKPEDTAVYYCAARWRSYITYWFDYWGQGTQVTVSS | low polyreactivity
QVQLVESGGGLVQAGGSLRLSCAASGSIFITYAMGWYRQAPGKDRELVATITSRSGGTYYADSVKGRFTISRDNAKNTVYLQMNSLKQEDTAVYYCNAVYTYPVFHGMGYWGQGTQVTVSS | high polyreactivity
HVQHVESGGGLVQAGGSLRLSCAASGRIFRPNAMGRYRQAPGKERELVAAITSNGGRTYYADSVKGRFTISRDNAKTTVYLQMTSQKPEDTAVYYCNAAPFRSGYGYWGQGTQVNVSS | high polyreactivity
QVQLVESGGGLVQAGGSLRLSCAASASTFILSAMGWYRQAPGNERELVAAISSDGSTYYADSVKGRFTISRDNAKNTVYLQMNSLKPEDTAVYYCAAYGYDADTGYDYWGQGTQVTVSS | low polyreactivity
QVQLVESGGGLVQAGGSLRLSCAASGLTFPKYAMGWYRQAPGKERELVAAITQRGGSTYYADSVKGRFTISRDNAKNTVYLQMNSLNPEDTAVYYSNARRRDYNNRREFDYWGQGTQVTVSS | high polyreactivity
QGQLVESGGGLVQAGGSLRLSCAASGRSVARYAMGGYRQAPGKERELVAAITVSGDNTYYADSVKGRFTISRDNAKNTVYLQMNSLKPEDTAVYYCAVRAVLLIGFFEYDYWGQGTQVTVSS | low polyreactivity
QVQILESGGGLVQAGGSLRLSCAASGFTFTGYALGWYSQAPGKERELVAAINARATSTYYADSVKGRFTISRDNAMNHVYLQIKSLIPEDTAVYFCAATFYRRYVDLGYWGQCTQVTVSS | high polyreactivity
QVQLVESGGGLVQAGGSLRLSCAASGIIFYDYAMGWYRQAPGKERELVAAITSNGDNTYYADSVKGRFTISRDNAKNTVYLQMNSLKPEDTAVYYCAVDGSFAADFDNYLEEYGYWGQGTLVTVSS | low polyreactivity
QVQLVESGGGLVQAGGSLRLSCAASGSTLPVNAMGWYRQAPGKERELVAAINRDGSTNYADSVKRPFTISRDNAKNNVYLQMNCLKPDDTAVYYCGADGFGYPGKRYDYWGHGTQVTVSS | low polyreactivity
QVQLVESGGGLVQAGGTLRLSSAASGSIFYRNAMGWYRQAPGKERELVDSITSGGLTNYADSVKGRFTISRDNAKNTVYLHMFSLKPEETAVYYCARGRASYTKSGPTPYTGYGYWGQGTQVTVSS | low polyreactivity
QVQLVESGGGLVQAGGSLRLSCAASGFIFAWNDMGWYRQAPGKERELVAAISSGTSTNYADSVKGRFTISRDNAKNTVYLQMNSLKPEDTGVYYCNVDSPLQPYRYYYWGQGSQVTVSS | low polyreactivity
QVQLEESGGGLVQAGGSLRLTCAASGRIFHSNDMGWNRQAPGKERELVAAITKVGGTNYADSVKGRFTISRDNAKNTVSLQMNSLKPEDTAVYYCAAAFYLYSPISGVYLSYSEYDYWGQGSQVTVSS | high polyreactivity
QVQLVESGGGLVQAGGSLRLSCAASGSTFDTNAMGWYRQAPGKERELVATITSIGGSTYADSVKGRFTISRDNAKNTVYLQMNSLKPEDTAVYYCATDYVEIDYDYDYWGQGTQVTVSS | low polyreactivity
QVQLVESGGGLVQAGGSLRLSCAASGLIYFYAMGWYRQEPGKERELVAAISSSGGRTYYADSVKGRFTISRDNAKNTVYLQMNSLKPEDTAVYYCAVVSSHYKGPGRNGYDYWGQGTQVTVSS | high polyreactivity
QVQLEESGGGLVQAGGSLRLSCAASGRTLKVYAMGWYRTAPGKERELVAAINNGGSTNYADSVKGRFTISRDNAKNTVFLQMNSLKPEDTAVYYFNAVYYARFRKYTYYYWGQGTQVTVSS | high polyreactivity
QVQLVESGGGLVQAGGSLRLSCAASGRIITYYAMGWYRQAPGKERELVAAITASGSRTYYADSVKGRFTISRDTAKNTVYLQMNSLKPEDTAVYYCAALSRLSPLSGSYYWGQGTQVTVSS | high polyreactivity
QFQLVESGGGLVQAGGSLRLSCAASGRTFGFNAMGWYRQAPGKERELVAALSGSGGRTYYADSVQGRFTISRDNAKNTVYLQMNSLKPEDTAVYYCAAGARRGGSGDWGQGTQVTVSS | high polyreactivity
